# Test results: US20260274981A1 (VIB VZW, published 2026)
# T1: cynomolgus TfR overexpressed on CHO cells (cynomolgus monkey, UniProt Q5RDH6 1-760 (Pongo abelii entry))
# T1 construct: construct is TfR followed by an HA tag and IRES-GFP; also called cynomolgus monkey TfR1; NHP TfR
# T1 chain: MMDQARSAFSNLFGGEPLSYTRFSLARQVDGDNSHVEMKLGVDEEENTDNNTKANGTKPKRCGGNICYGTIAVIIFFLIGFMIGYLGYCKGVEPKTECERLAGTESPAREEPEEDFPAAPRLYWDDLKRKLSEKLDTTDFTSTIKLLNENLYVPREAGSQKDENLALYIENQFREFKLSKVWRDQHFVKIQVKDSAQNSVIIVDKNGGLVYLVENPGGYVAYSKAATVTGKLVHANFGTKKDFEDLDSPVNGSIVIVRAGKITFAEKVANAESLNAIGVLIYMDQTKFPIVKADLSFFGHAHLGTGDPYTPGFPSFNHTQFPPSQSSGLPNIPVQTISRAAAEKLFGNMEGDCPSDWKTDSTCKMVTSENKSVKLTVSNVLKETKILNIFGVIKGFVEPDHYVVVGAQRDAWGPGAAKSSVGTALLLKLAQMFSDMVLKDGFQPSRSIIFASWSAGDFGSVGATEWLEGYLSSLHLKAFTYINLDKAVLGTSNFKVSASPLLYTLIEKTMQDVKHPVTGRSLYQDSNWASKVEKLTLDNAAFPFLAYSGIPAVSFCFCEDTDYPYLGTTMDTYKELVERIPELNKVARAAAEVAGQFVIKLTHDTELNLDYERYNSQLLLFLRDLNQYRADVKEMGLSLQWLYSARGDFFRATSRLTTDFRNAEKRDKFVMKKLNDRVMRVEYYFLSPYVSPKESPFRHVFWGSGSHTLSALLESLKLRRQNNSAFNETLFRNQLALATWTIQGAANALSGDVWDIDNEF
# Legend:
# [1] = molecular target: T1, cynomolgus TfR overexpressed on CHO …; experiment: flow cytometry, first of two columns 'Binding to cyno TfR1 EC50 (M)' (second column: ND); paragraph 156 calls it the capacity to compete for binding on cynomolgus monkey TfR1, competitor not named
# [2] = molecular target: T2, human TfR overexpressed on CHO cells (human, UniProt P02786 1-760); experiment: flow cytometry, first of two columns 'Binding to human TfR1 EC50 (M)' (second column: ND); paragraph 156 calls it the capacity to compete for binding on human TfR1, competitor not named
# T2 construct: construct is TfR followed by an HA tag and IRES-GFP; also called hTfR; human transferrin receptor
# [3] = molecular target: T2, human TfR overexpressed on CHO cells; experiment: flow cytometry, second of two columns 'Binding to human TfR1 EC50 (M)' (first column: ND); paragraph 156 calls it the capacity to compete for binding on human TfR1, competitor not named
# [4] = molecular target: T1, cynomolgus TfR overexpressed on CHO …; experiment: flow cytometry, second of two columns 'Binding to cyno TfR1 EC50 (M)' (first column: ND); paragraph 156 calls it the capacity to compete for binding on cynomolgus monkey TfR1, competitor not named
# [5] = molecular target: T3, recombinant human TfR (2474-TR, R&D Systems), biotinylated (human, UniProt P02786 89-760, biotinylated with EZ-Link NHS-PEG4-Biotinylation Kit); experiment: SPR (Biacore), ratio of the off rates on human TfR at the two pH values; the printed number equals kd at pH 5.5 divided by kd at pH 7.4
# T3 construct: Bought protein; also called immobilized recombinant human TfR; biotinylated human TfR
# Description: (§1) E. coli TG1 bacteria were transformed with those plasmids and expressions induced. Crude extracts were prepared and analyzed for binding by flow cytometry on human TfR overexpressing cells. […] Next, off rates of these selected variants were determined on recombinant human TfR by surface plasmon resonance (Biacore, Marlborough, Massachusetts, United States). Biotinylated human TfR was captured on a streptavidin-coated SA sensor chip (Cytiva). Increasing concentrations of nanobodies were sequentially injected in a single cycle at a flow rate of 30 μL/min. The dissociation was monitored for around 20 min. A reference flow was used as a control for non-specific binding and refractive index changes. Several buffer blanks were used for double referencing. Off rates were derived after fitting the experimental data to the 1:1 binding model with the Biacore Evaluation Software.
# (§2) Surface Plasmon Resonance (SPR) was used to measure the interaction between VHHs and human or cynomolgus TfR receptor. Human TfR (2474-TR, R&D Systems) and cynomolgus TfR (90253-C07H, Sino Biological) were biotinylated with the EZ-Link NHS-PEG4-Biotinylation Kit (ThermoFischer Scientific) according to the manufacturer instructions. The binding experiments were performed at 25° C. on a Biacore T200 instrument (Cytiva, Uppsala, Sweden) in HBS-EP+ buffer (10 mM HEPES, 150 mM NaCl, 3 mM EDTA and 0.05% v/v Surfactant P20). Biotinylated human TfR and cynomolgus TfR were captured on a SA sensor chip (Cytiva) at a density of around 250 RU. Increasing concentrations of VHHs were sequentially injected in one single cycle at a flow rate of 30 μl/min. The dissociation was monitored for 20 min. […] A reference flow was used as a control for non-specific binding and refractive index changes. Several buffer blanks were used for double referencing. Binding affinities (KD) and kinetic rate constants (kₒₙ, koff) were derived after fitting the experimental data to the 1:1 binding model with the Biacore T200 Evaluation Software 3.1 using the single cycle kinetic procedure.
# [6] = molecular target: T3, recombinant human TfR (2474-TR, R&D …); experiment: SPR (Biacore), biotinylated human TfR captured on an SA chip, VHH injected, 1:1 dissociation fit, pH 7.4
# Description: as §1, §2
# [7] = molecular target: T3, recombinant human TfR (2474-TR, R&D …); experiment: SPR (Biacore), biotinylated human TfR captured on an SA chip, VHH injected, 1:1 dissociation fit, pH 5.5
# Description: as §1, §2
# [8] = molecular target: T1, cynomolgus TfR overexpressed on CHO …; experiment: flow cytometry, column 'Binding to cyno TfR1 EC50 (M)'; paragraph 156 calls it the capacity to compete for binding on cynomolgus monkey TfR1, competitor not named
# [9] = molecular target: T2, human TfR overexpressed on CHO cells; experiment: flow cytometry, column 'Binding to human TfR1 EC50 (M)'; paragraph 156 calls it the capacity to compete for binding on human TfR1, competitor not named
# T3 sequence (P02786 89-760 limits assumed): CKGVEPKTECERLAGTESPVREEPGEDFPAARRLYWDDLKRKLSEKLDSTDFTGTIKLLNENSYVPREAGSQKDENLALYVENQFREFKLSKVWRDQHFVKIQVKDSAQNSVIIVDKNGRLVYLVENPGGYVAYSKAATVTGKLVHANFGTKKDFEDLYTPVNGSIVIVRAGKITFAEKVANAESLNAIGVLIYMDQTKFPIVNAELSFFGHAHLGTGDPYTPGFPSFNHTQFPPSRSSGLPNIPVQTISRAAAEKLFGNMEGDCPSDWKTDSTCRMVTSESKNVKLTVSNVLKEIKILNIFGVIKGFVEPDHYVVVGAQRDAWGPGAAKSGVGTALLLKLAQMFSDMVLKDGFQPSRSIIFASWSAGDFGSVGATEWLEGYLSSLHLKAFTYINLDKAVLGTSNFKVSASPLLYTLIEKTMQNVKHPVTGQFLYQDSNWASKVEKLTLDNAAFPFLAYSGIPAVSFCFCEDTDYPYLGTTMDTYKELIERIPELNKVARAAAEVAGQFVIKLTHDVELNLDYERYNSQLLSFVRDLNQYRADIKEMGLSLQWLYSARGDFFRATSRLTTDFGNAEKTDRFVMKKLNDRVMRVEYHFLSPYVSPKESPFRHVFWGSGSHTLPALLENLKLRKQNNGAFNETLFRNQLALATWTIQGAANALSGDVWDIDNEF
EC50 [1] [nM],EC50 [2] [nM],EC50 [8] [nM],EC50 [9] [nM],Binder,other results
240,560,,,BBB00533_h13 (VHH) VHH: EVQLVESGGGLVQPGGSLRLSCTASGRTFNYAMGWFRQAPGKNREFVATIDWKDGSSYYADSVKGRFTISRDDAKNTVYLQMNSLRPEDTAVYYCAVGQGDYCSTYTCAAEVEYDYWGQGTLVTVSS,
,,22,60,"BBB00515_h04 (VHH, The sheet prints E1D and E84K (IMGT) against BBB00515_h01; also called BBB00515_h4) VHH: DVQLVESGGGLVQPGGSLRLSCAASGSIFSINAMGWYRQAPGKQRELVAVITSGGSTIYADSVKGRFTISRDNAKNTVYLQMNSLRPEDTAVYYCNAHVGLKVPTIQELSLGFGSWGQGTLVTVSS",
,,23,67,"BBB00515_h02 (VHH, The sheet prints E84K (IMGT) against BBB00515_h01; also called BBB00515_h2) VHH: EVQLVESGGGLVQPGGSLRLSCAASGSIFSINAMGWYRQAPGKQRELVAVITSGGSTIYADSVKGRFTISRDNAKNTVYLQMNSLRPEDTAVYYCNAHVGLKVPTIQELSLGFGSWGQGTLVTVSS",

# The remaining lines, values behind:
Binder,EC50 [1] [nM],EC50 [2] [nM],EC50 [8] [nM],EC50 [9] [nM],other results
BBB00533_h14 (VHH) VHH: EVQLVESGGGLVQPGGSLRLSCTASGRTFNYAMGWFRQAPGKNREFVATIDWKDGSSYYADSVKGRFTISRDDAKNTVYLQMNSLRPEDTAVYYCAVGEGDYCSTYTCAAEVEYDYWGQGTLVTVSS,180,340,,,
BBB00533_h17 (VHH) VHH: EVQLVESGGGLVQPGGSLRLSCTASGRTFNYAMGWFRQAPGKNREFVATIDWKQGSSYYADSVKGRFTISRDDAKNTVYLQMNSLRPEDTAVYYCAVGEGDYCSTYTCAAEVEYDYWGQGTLVTVSS,120,290,,,
"BBB00533_h10 (VHH, The sheet prints R72K and D82N (IMGT) against BBB00533_h01) VHH: EVQLVESGGGLVQPGGSLRLSCTASGRTFNYAMGWFRQAPGKNREFVATIDWKDGSSYYLDSVKGRFTISRDNAKNTVYLQMNSLRPEDTAVYYCAVGDGDYCSTYTCAAEVEYDYWGQGTLVTVSS",,,,,EC50 [3]: 110 nM; EC50 [4]: 14 nM
"BBB00772 (VHH, Histidine mutant) VHH: EVQLVESGGGLVQAGGSLRLSCAASGSIFSINAMGWYRQAPGKQRELVAVITSGGSTIYADSVKGRFTISRDNAENTVYLQMNSLRPEDTAVYYCNAHVGLKVPTIQELSLGFGHWGQGTLVTVSS",,,,,off-rate ratio kd pH5.5/kd pH7.4 [5]: 1.92; koff [6]: 0.00737 s⁻¹; koff [7]: 0.0141 s⁻¹
BBB00515_h1 (VHH) VHH: EVQLVESGGGLVQPGGSLRLSCAASGSIFSINAMGWYRQAPGKQRELVAVITSGGSTIYADSVKGRFTISRDNAENTVYLQMNSLRPEDTAVYYCNAHVGLKVPTIQELSLGFGSWGQGTLVTVSS,,,26,120,
